test: soluble fraction after stress (log2 fold change); higher = more stays soluble; pooled small domains, quantitative proteomics; settings: stress: pH 4
Outline: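 Following acid stress at pH 4, the amount of each small protein domain still soluble was measured in pooled custom libraries by high-throughput quantitative proteomics. Its fold change, on a log2 scale, is higher when more of the domain stayed soluble. This fold change is taken as a measure of aggregation propensity.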

Row | Sequence | soluble fraction (log2)
1 | HMKSKHENLIDGLLKMISSMKPHDRLTPERQLAEEWAVSRMTLRRALEVLQFQGKIYTVPSSGLFVAEPK | -0.677
2 | HMAKRKTEKTSVLEEIDGVGKARARALLARFGGLSGVKAASPEELRTVRGITPEIAENIRRYFQ | 0.134
3 | HMAPKVHLLKVPVDKIREIIGTGGKVIRQITEETGAKIDISDDGSVKVSSPDQSSIDAATTWITGIIAE | -0.102
4 | HMQQPVAYSEFVQSVNDRQIREAQIQGERIVATDNNGNRMTVIWPENDTKLLDELVQNGVLTSIQE | -0.675
5 | HMSVVKPIYIGMMTSEVEAIMGKPFEVITNNNSKNNQLWIYKYQDKRSVMLTFTNYKLIKIE | -0.0356
6 | HMNVKVYATIDGDNFKVSGLKPGSNVRVYSSNGSAVFEKKAGDSEMIIPAGAWTKGIYVISADDQSIKVT | -0.0844
7 | HMLQMSDSSALEAILDEVLGSEMGQKALSDIEAGNMKAMGFIIGQSMKLSKGQANPQIINKLLQQRLK | -0.487
8 | HMVISLREINLIGVYGRPNARRALVRLSNGRYVRVEVGSDLDGGKVTAIGDEALNFVKRGRTYAIQLPA | -0.324
9 | HMEQPPVPSVSITAALGSAVARRLAPHGFQKMPDLVDAYRAGKLAQISGIGGTTLDLIREWLTANARQQ | -0.189
10 | HMLDFLVSKYESELLADLLWSLGVVAVEEREATGDLVTLRTSLGDDHSFTRELVQEKFPDVIVSTAL | -2.23
11 | HMETAADLLAAAKENPARFGILASEGRFGLGYMNDDLLDPDNLVAISREEADDLRGLGVYFHNLD | -0.308
12 | HMDASVTIEQVERMVQANVSDDVIISQLQGRGAAQNLSTDDIINLTQKGISAEVIKAYQSAG | -0.934
13 | HMSNYFIEISKDSLARINDEIELDVLRETSDTIIISQEEKTNTISSFIKVLFERQIDILSIQNR | -1.25
14 | HMFDSYDIYDEAGNTVNTVKGKLSWGHLLEIYDRFDNHIGTVQERVLTFLPKFLMYINGQEIGEIR | -0.334
15 | HMNIAESIRKYRKASGLTQEEMAKRLGVTTPAVSKWENGITNPDIALLAPIARLFHISVDTLLSYR | 0.0976
16 | HMNNYEGIVKSVSNSNVYIQVAGRTIGYTISPHTIIMVNGKNVPASELMPGQHVSYTNKGSKLSYININS | 0.205
17 | HMDTAEQNWRLRGKLVTLGLNARQIRMALASHAPRYLEDNIAVVERDLAAGKVRNLPAYLLAALREDYRP | -0.147
18 | HMTGEERRMNTADLYRRRGMELFKRKIYVDAIDSLKVSLEYEDNATTRYYLDLATKRYQDLKIS | -0.0891
19 | HMGAAITEAEAKQIALDHAGVSESETERMRVKLGRDDGVQEYEVNFYVGNREYDYDINAATGEIRSHDSE | 0.22
20 | HMFEQFEVENLQELQQEWGDKFNHNLEMARRAFMNFATPEAVKVLEETGMGNHPELLKVFARIGEVLAED | -1.22
21 | HMSIMNEQIREILNQQVTKTSKIQQLLLLGLTRRQVADLVTNGNYGFVQNVYRNMLDAGIFTP | -0.487
22 | HMTSLTDDELSVVMLVREREISFDEITSETGFDAARLNSVLTMLKIKGIIDETTGKHYRISGGA | -0.492
23 | HMQPGDRVDALIVGVSGEHVFLDVGGKSEGVMAAAELRNEAGELSAAEGDRVQVYLLSNRNGELIFTA | -0.283
24 | HMSILSRREHEIMQWVKGGKTNIEIAQILGISARTVRNHLQNVFRKLDVINRAQAVFEVERRR | -0.639
25 | HMTESSTYFEKIGTEISQFKSIPKNIDVIIIEKLIYSGIIKKVDNEENSRVYYILTRKGRYFWKRYVLS | -0.0659
26 | HMYLNYQTIGKRIRLLRKQQHLTQMTLAEMVDKSPTYISLVENGQKGPSLETLIDVANALKVTMDVLLAEY | -1.58
27 | HMIERKLRKKEHFIASVGEKVKIKNFATETYKGELISADNEKVVVETEFGKEEITYDNILAAATYFE | -1.01
28 | HMIQSEQIPFSKFLKEVDSGRVVQVEIQGNNINGVLSDGSKFKTYSPNYPELVGKLSDKGVSIVASPV | 0.0829

Row | Sequence | soluble fraction (log2)
29 | HMSTMNRLPRHEQILKLVRANGFMPIEELARLLDVTPQTIRRDINTLSEENLLRRFHGGAALGPSVE | 0.255
30 | HMKPVTVINFVGMTEEKAMTEAEKLGLVVGASSSEYSDEPAGTVIRQSISVSTEAKTGDNIYFTVSKGPE | -0.416
31 | HMGHEEPITFDRLPQAAQTFLKTHFDTLTVAYIVADRKFMGVEYEVKYTDRTEVDFRSDGQWESV | -0.443
32 | HMDYARYGLSEKEAELIELIAQGMNNKEISAEIYLSEGTVRNYISELLEKLELRDRTQLAVYYYTHR | -1.52
33 | HMVLTGTIKKYNNERGFGFISTSNFGDVFFHIKDFQKGEQPIPGREVYFEVVKKENKKRAIHVYYSD | -0.243
34 | HMDAKIKDYADAYAKMDPQQAASLFNNMTTGSLDLVAKILENIPANKRAAILEKMDVNAAAQVTEKMR | 0.188
35 | HMGNNKLVLSLAVALKNTPNFLKNYNYKISKDKKFIEILLSKQINEVSDIIINLKKNNINIVDLNIKKR | -0.0131
36 | HMEAALTLRVDKAGSLRSLLSDEQYAKTSKIIVSGEINTLDIKTLQEMSGEKGSLQSIDLSQANIVAY | -0.351
37 | HMEKRRQEIVELVKRESEISFAELKQHFPEVSEVTLRKDLKYLDSTLQIIRIHGGAKSLPAAI | -0.582
38 | HMSRSSQMVNFIRLLSQEKKVSVNSIFSSSVQLSDGIIVKINDFYYRVNLSLDQKTYSLVEVS | 0.12
39 | HMGDPMAIMQLSSNTTPEYWEAYQKYHIQEYEQSNFIRYVNGISVLDDDFVDKVLITIDQHGRIFSELKS | -2.5
40 | HMDRMIPPYGLEVTYDKTTHIIFPSAVRYVDLGSPNLIAGKADGSENVIRVKATRKNFREETNMSVITE | -0.0773
41 | HMVSKIEAPLPGIILSVDVKEGDTVKAGDKLMVMEAMKMENAILAETNGVVKSIKVKIQDSVLQGDILAEI | -1.07
42 | HMFLTDHEVSKVARKRAHAEYLSSLSWRQRTFGDHGERSKNFEAWYKEHSHLYETEKLYKELYKN | 0.245
43 | HMKTTVEVSPIARPGAVASGSVKFGSGVTAEWMLDQYGRLGLDKPTGKPTEQDIKEFQIELQKAL | 0.122
44 | HMTDKLEEEAKKKAMEDALADEMNISKTIVHDGIRELARIGFLDVISRKGIYVADYTFTGNLETLLAVIRY | -0.0919
45 | HMKKKVDSENLLLDILKQMQPQASTNVLRKMLTNQRISVDDQIIHRAKHVVQEGQTVEIHPKP | 0.139
46 | HMISDDLYQAVLDFTLTQDTISISRLQQNFNLGWPRARQLYDQLMQNGIIEPPDEANSAKGAVVIANKRG | -1.06
47 | HMDFGPDSAAPLADGSAPEGFDVKGNADSMLYHEPDGRWYDATVAEVWFRTAEAAQAAGFTKAGS | -2.02
48 | HMVMIPDLVGETIEDAKDILEGLGFEVEVRSEFPESDWGRPFARVTSLSPSAGQEVAKGTLVIIRSF | -0.144
49 | HMPSRPIQVASFSKEDNAKRAAEALAKIGVTATPQKSEKAGKAVWGVVVTGDDAMLQKIKDAGFADAYFL | 0.22
50 | HMNTDEYEQKRGEILDAAQRLIYTKGYERMSIQDILDELKISKGAFYHYFDSKQSLLEALTARMMTE | -0.408
51 | HMGLSENALAMLKQQETVLIRLIDGRGNQGALASINLIVSRILNLDIVDRTPEDLLRVIASEGEQND | -1.54
52 | HMIAANMTISQRIAAALAEYGVMSVKDIAQEVLGATDKKDTEKIRVTLTRDHGKRFRTYSDGTWSLKDWRP | 0.234
53 | HMYKMKDRIKKIMEMQRTTQQDFADQLKIAPATLSSIFTGRTRPTLAIVDAIKSRFPQISTDWLMFGKGDM | 0.22
54 | HMGPLPIDSRYFNNLVPYTGITHVNSVIPEAERHIGLTVVVKTGSTYSEYWYRTGVTNSSLELKT | -0.726
55 | HMYHADLIGLRVETAAGEKLGTVKAVHNFGAGDVIEITGAEDKDGLMVPFTAEVVPEVDIENGRIVVS | -0.868

From the domain aggregation screens of Martell et al. (2025)
